Results published in patent US6372892.

Target: recombinant human IL-1β (human) (UniProt P01584)
Assay: cell-based or functional assay

UniProt P01584, sequence (P01584 117-269 limits assumed): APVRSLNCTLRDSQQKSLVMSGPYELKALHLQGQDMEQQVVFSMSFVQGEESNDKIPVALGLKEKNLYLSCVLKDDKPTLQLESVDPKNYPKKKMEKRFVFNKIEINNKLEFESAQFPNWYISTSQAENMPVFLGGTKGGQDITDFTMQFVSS

IL-1 Hy2 (from UniProt Q8WWZ1 1-152) (ligand)
IL-1β induced PGE2 production in human fibroblasts (CCD 1098), PGE2 ELISA; IL-1 Hy2 at 1000 fold excess: 40 to 60 % inhibition
